Ten molecules from US20060257938A1, “Method of screening for drugs that block ligand binding to a lipid binding protein” (priority 2005, published 2006) can be followed below.

Common to all, as to type: binding
Assay [1] is described as follows: Probe fluorescence ratio response to arachidonic acid relative to ADIFAB2. As to conditions: arachidonic acid; response relative to ADIFAB2. The method in brief: (§1)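 Fluorescently labeled rat intestinal FABP variants were read at two emission wavelengths, near the unbound maximum (about 420 to 480 nm) and the FFA-bound maximum (about 495 to 580 nm). R = Fλ1/Fλ2 after subtracting probe-free intensity; ΔR = R+agent − R0, normalized to ADIFAB2 (rI-FABP-L72A).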

The nature of assay [2]: Probe fluorescence ratio response to linolenic acid relative to ADIFAB2. As to conditions: response relative to ADIFAB2. Summed up: as §1
A short description of assay [3]: Probe fluorescence ratio response to linoleic acid relative to ADIFAB2. As to conditions: response relative to ADIFAB2. The method in brief:
as §1

A short description of assay [4]: Probe fluorescence ratio response to oleic acid relative to ADIFAB2. As to conditions: response relative to ADIFAB2. Summed up:
as §1

Assay [5] in a line: Probe fluorescence ratio response to palmitic acid relative to ADIFAB2. As to conditions: response relative to ADIFAB2. Summed up: as §1
A short description of assay [6]: Probe fluorescence ratio response to palmitoleic acid relative to ADIFAB2. As to conditions: response relative to ADIFAB2. The method in brief:
as §1

Assay [7] in a line: Probe fluorescence ratio response to stearic acid relative to ADIFAB2. As to conditions: response relative to ADIFAB2. The method in brief: as §1

B1: 14R 18L 73L 117D 72A (protein, listed as Rattus norvegicus)
chain: AFDGTWKVDRNENREKFLEKMGINVVKRKLGAHDNLKLTITQEGNKFTVKESSNFRNIDVVFELGVDFAYSALDGTELTGTWTMEGNKLVGKFKRVDNGKELIAVREISGNELIQTDTYEGVEAKRIFKKE
modifications: PEPTIDE (1)...(131) wild-type rat intestinal fatty acid binding protein
For the molecule B1, in assay [1], the “DR/DR AA” value amounted to 1.029. Moreover, the “DR/DR LNA” value in assay [2] is listed as 1.790. Besides, the “DR/DR LA” value in assay [3] was found to be 1.766. In addition, the “DR/DR OA” value in assay [4] stood at 0.847. Also, the “DR/DR PA” value in assay [5] came out at 0.294. The “DR/DR POA” value in assay [6] worked out at 0.801. Further, the “DR/DR SA” value in assay [7] stood at 0.213.

B2: 18V 31V 73I 72A (protein, listed as Rattus norvegicus)
chain: AFDGTWKVDRNENYEKFVEKMGINVVKRKLVAHDNLKLTITQEGNKFTVKESSNFRNIDVVFELGVDFAYSAIDGTELTGTWTMEGNKLVGKFKRVDNGKELIAVREISGNELIQTYTYEGVEAKRIFKKE
modifications: PEPTIDE (1)...(131) wild-type rat intestinal fatty acid binding protein
With B2, the “DR/DR AA” value in assay [1] amounted to 0.863. Further, the “DR/DR LNA” value in assay [2] came to 1.531. The “DR/DR LA” value in assay [3] was 1.151. The “DR/DR OA” value in assay [4] amounted to 0.670. Besides, the “DR/DR PA” value in assay [5] is recorded as 1.302. In assay [6], the “DR/DR POA” value is listed as 1.334. Also, in assay [7], the “DR/DR SA” value is listed as 0.311.

B3: 14L 18L 73W 117S 72A (protein, listed as Rattus norvegicus)
chain: AFDGTWKVDRNENLEKFLEKMGINVVKRKLGAHDNLKLTITQEGNKFTVKESSNFRNIDVVFELGVDFAYSAWDGTELTGTWTMEGNKLVGKFKRVDNGKELIAVREISGNELIQTSTYEGVEAKRIFKKE
modifications: PEPTIDE (1)...(131) wild-type rat intestinal fatty acid binding protein
On to B3, for which the “DR/DR AA” value in assay [1] is 1.010. In assay [2], the “DR/DR LNA” value is recorded as 1.499. Moreover, the “DR/DR LA” value in assay [3] was 1.385. The “DR/DR OA” value in assay [4] turned out to be 0.374. The “DR/DR PA” value in assay [5] was determined as 0.259. Further, in assay [6], the “DR/DR POA” value was determined as 0.750. Further, the “DR/DR SA” value in assay [7] was −0.005.

B4: 38W 106H 117A 72A (protein, listed as Rattus norvegicus)
chain: AFDGTWKVDRNENYEKFMEKMGINVVKRKLGAHDNLKWTITQEGNKFTVKESSNFRNIDVVFELGVDFAYSAADGTELTGTWTMEGNKLVGKFKRVDNGKELIAVHEISGNELIQTATYEGVEAKRIFKKE
modifications: PEPTIDE (1)...(131) wild-type rat intestinal fatty acid binding protein
For the molecule B4, in assay [1], the “DR/DR AA” value was determined as 1.326. Also, the “DR/DR LNA” value in assay [2] is 1.397. Moreover, the “DR/DR LA” value in assay [3] came to 1.248. In addition, in assay [4], the “DR/DR OA” value was determined as 0.831. For the same molecule, in assay [5], the “DR/DR PA” value was 0.426. For the same molecule, the “DR/DR POA” value in assay [6] was 1.098. Further, the “DR/DR SA” value in assay [7] is 0.071.

B5: 14L 18L 31S 73W 117V 72A (protein, listed as Rattus norvegicus)
chain: AFDGTWKVDRNENLEKFLEKMGINVVKRKLSAHDNLKLTITQEGNKFTVKESSNFRNIDVVFELGVDFAYSAWDGTELTGTWTMEGNKLVGKFKRVDNGKELIAVREISGNELIQTVTYEGVEAKRIFKKE
modifications: PEPTIDE (1)...(131) wild-type rat intestinal fatty acid binding protein
In the case of B5, the “DR/DR AA” value in assay [1] was 1.458. Besides, the “DR/DR LNA” value in assay [2] was 1.631. For the same molecule, in assay [3], the “DR/DR LA” value is on record as 1.569. In addition, the “DR/DR OA” value in assay [4] worked out at 1.208. The “DR/DR PA” value in assay [5] worked out at 0.692. In addition, the “DR/DR POA” value in assay [6] worked out at 1.356. Also, in assay [7], the “DR/DR SA” value worked out at 0.329.

B6: 18I 31L 72A (protein, listed as Rattus norvegicus)
chain: AFDGTWKVDRNENYEKFIEKMGINVVKRKLLAHDNLKLTITQEGNKFTVKESSNFRNIDVVFELGVDFAYSAADGTELTGTWTMEGNKLVGKFKRVDNGKELIAVREISGNELIQTYTYEGVEAKRIFKKE
modifications: PEPTIDE (1)...(131) wild-type rat intestinal fatty acid binding protein
As to B6, the “DR/DR AA” value in assay [1] turned out to be 1.054. In addition, in assay [2], the “DR/DR LNA” value was 1.384. Further, the “DR/DR LA” value in assay [3] worked out at 1.198. The “DR/DR OA” value in assay [4] is reported as 0.719. Further, in assay [5], the “DR/DR PA” value amounted to 1.182. Also, in assay [6], the “DR/DR POA” value amounted to 1.187. The “DR/DR SA” value in assay [7] was 0.305.

B7: 14L 31W 117V 72A (protein, listed as Rattus norvegicus)
chain: AFDGTWKVDRNENLEKFMEKMGINVVKRKLWAHDNLKLTITQEGNKFTVKESSNFRNIDVVFELGVDFAYSAADGTELTGTWTMEGNKLVGKFKRVDNGKELIAVREISGNELIQTVTYEGVEAKRIFKKE
modifications: PEPTIDE (1)...(131) wild-type rat intestinal fatty acid binding protein
B7: the “DR/DR AA” value in assay [1] was 1.972. For the same molecule, the “DR/DR LNA” value in assay [2] was 1.894. The “DR/DR LA” value in assay [3] came to 2.027. Moreover, the “DR/DR OA” value in assay [4] was 1.580. Further, the “DR/DR PA” value in assay [5] is 1.304. Besides, the “DR/DR POA” value in assay [6] came to 1.768. In assay [7], the “DR/DR SA” value was 0.742.

B8: 72A 74N (protein, listed as Rattus norvegicus)
chain: AFDGTWKVDRNENYEKFMEKMGINVVKRKLGAHDNLKLTITQEGNKFTVKESSNFRNIDVVFELGVDFAYSAANGTELTGTWTMEGNKLVGKFKRVDNGKELIAVREISGNELIQTYTYEGVEAKRIFKKE
modifications: PEPTIDE (1)...(131) wild-type rat intestinal fatty acid binding protein
With B8, in assay [1], the “DR/DR AA” value turned out to be 1.614. The “DR/DR LNA” value in assay [2] was found to be 1.701. Also, the “DR/DR LA” value in assay [3] is 1.681. The “DR/DR OA” value in assay [4] was 1.629. Moreover, the “DR/DR PA” value in assay [5] amounted to 1.308. In addition, the “DR/DR POA” value in assay [6] is reported as 1.536. Moreover, the “DR/DR SA” value in assay [7] was found to be 1.299.

B9: 18I 31L 73G 72A (protein, listed as Rattus norvegicus)
chain: AFDGTWKVDRNENYEKFIEKMGINVVKRKLLAHDNLKLTITQEGNKFTVKESSNFRNIDVVFELGVDFAYSAGDGTELTGTWTMEGNKLVGKFKRVDNGKELIAVREISGNELIQTYTYEGVEAKRIFKKE
modifications: PEPTIDE (1)...(131) wild-type rat intestinal fatty acid binding protein
For the molecule B9, the “DR/DR AA” value in assay [1] was determined as 0.981. Besides, in assay [2], the “DR/DR LNA” value was 1.525. For the same molecule, the “DR/DR LA” value in assay [3] was found to be 1.146. In assay [4], the “DR/DR OA” value came out at 0.595. For the same molecule, the “DR/DR PA” value in assay [5] is 1.137. Moreover, the “DR/DR POA” value in assay [6] amounted to 1.377. The “DR/DR SA” value in assay [7] stood at 0.267.

B10: 18I 55G 73M 72A (protein, listed as Rattus norvegicus)
chain: AFDGTWKVDRNENYEKFIEKMGINVVKRKLGAHDNLKLTITQEGNKFTVKESSNGRNIDVVFELGVDFAYSAMDGTELTGTWTMEGNKLVGKFKRVDNGKELIAVREISGNELIQTYTYEGVEAKRIFKKE
modifications: PEPTIDE (1)...(131) wild-type rat intestinal fatty acid binding protein
For the molecule B10, the “DR/DR AA” value in assay [1] is 0.895. Further, the “DR/DR LNA” value in assay [2] amounted to 1.284. Further, the “DR/DR LA” value in assay [3] is reported as 1.127. Further, in assay [4], the “DR/DR OA” value was 0.574. In addition, in assay [5], the “DR/DR PA” value is given as 1.137. The “DR/DR POA” value in assay [6] was found to be 1.201. In assay [7], the “DR/DR SA” value is listed as 0.360.
